{"source": "patent US20220409620A1", "about": "“REDUCING IMMUNOGENICITY TO PEGLOTICASE” (Horizon Pharma Rheumatology LLC, priority 2016, published 2022)", "key": {"[1]": {"assay": "Pegloticase serum concentrations (Cmax, Cmin), enzymatic/fluorescence assay, MIRROR OL", "assay_type": "in vivo, human", "details": "with MTX Co-Treatment", "text": "Pharmacokinetic and Anti-drug Antibody Measurements: Serum samples for PK analysis of pegloticase were collected prior to the pegloticase infusion and after the end of infusion (prior to discharge) on Day 1 and at the Weeks 2, 4, 6, 8 and 36 Visits or weeks 2, 6, 14, 24, 36, for the open-label and randomized studies, respectively, and prior to the pegloticase infusion only at the Weeks 10, 14, 18, 22, 24 (open-label study); at the End of Pegloticase Infusions Visit (if applicable); and the Week 52/End of Study/Early Termination Visits. Visits for frequent sampling of a subset of subjects who consent for additional non-infusion visit PK sampling occurred at Weeks 1 and 7 or at week 21 for the open-label and randomized studies, respectively.\nAn enzymatic/fluorescence assay was used to quantitate pegloticase concentrations in serum. In the assay, pegloticase catalyzes the conversion of UA to allantoin, thus releasing hydrogen peroxide (H2O2) and carbon dioxide. In the presence of horseradish peroxidase, H2O2 reacts with a 1:1 stoichiometry with Amplex Ultra Red (Molecular Probes, Inc., Eugene, Oreg.) to generate the red fluorescence oxidation product, resorufin. The concentration of resorufin, which is determined by fluorometry, is proportional to the amount of active pegloticase present in the serum samples. The lower limit of detection established in previous studies has been determined to be 0.6 μg/mL.\nMethods: In the MIRROR OL trial, MTX (15 mg/week) was given orally 4 weeks prior to the first pegloticase dose and continued weekly, in combination with pegloticase 8 mg given intravenously every 2 weeks, for a treatment duration of up to 52 weeks. Pre-infusion samples were collected to measure MTX-PGs 1 to 5 in red blood cells at day 1, week 4, 8, 22, 24 and 36. […] Pegloticase concentrations in serum was measured using a validated enzymatic/fluorescence assay. The limit of quantification is 0.6 μg/mL. Anti-pegloticase/PEG IgG antibodies (ADA) were measured using a validated enzyme linked immunosorbent assay (ELISA). The analysis of MTX Polyglutamates was conducted by Exagen. The impact of MTX on pegloticase PK was evaluated by two methods: (1) Comparing pegloticase exposures (median Cmax and Cmin across visits) with MTX from the MIRROR OL trial to the observed levels in historical monotherapy Phase 3 studies (C0405 and C0406) (Lipsky et al., Arthritis Res Ther 16(2), 2014; Sundy et al., JAMA 306(7), 2011). Overlaying observed pegloticase concentrations with MTX against the 90% prediction band of pegloticase concentrations following monotherapy based on the population PK model from the Phase 3 data (Yue et al., ASCPT. Atlanta, 2010)."}, "[2]": {"system": "patients with refractory chronic gout", "details": "cited from earlier work; for patients maintaining a response to pegloticase: another study"}, "[3]": {"system": "subjects with refractory gout", "details": "after doses of 4 to 12 mg; from 11.1±0.6 mg/dL; cited from earlier work"}}, "note": "Like-named read-outs stand apart in the source and are kept apart here."}
{"substance": "pegloticase", "values": [{"measurement": "Cmax BQL, %", "setting": "[1]; Quantitation Limit 0.6 μg/mL", "value": 0, "unit": "%"}, {"measurement": "Cmax BQL, n/N", "setting": "[1]; Quantitation Limit 0.6 μg/mL", "value": "0/14"}, {"measurement": "Cmin BQL, %", "setting": "[1]; Quantitation Limit 0.6 μg/mL", "value": 36, "unit": "%"}, {"measurement": "Cmin BQL, n/N", "setting": "[1]; Quantitation Limit 0.6 μg/mL", "value": "5/14"}, {"measurement": "Cmax, Median (Q1, Q3)", "setting": "[1]; serum, BQL: below 0.6 μg/mL", "value": "2.11 (1.65, 2.59) μg/mL"}, {"measurement": "Cmin, Median (Q1, Q3)", "setting": "[1]; serum, BQL: below 0.6 μg/mL", "value": "1.03 (BQL, 1.23) μg/mL"}, {"measurement": "Non-responders", "setting": "[2]; C0405 and C0406", "value": "49/85"}, {"measurement": "patients maintaining a response to pegloticase", "setting": "[2]; antibody titer exceeding 1:2430 at any time during treatment, 7 of 65", "value": 10.8, "unit": "%"}, {"measurement": "patients maintaining a response to pegloticase", "setting": "[2]; never had an antibody titer above 1:2430, 58/65", "value": 89.2, "unit": "%"}, {"measurement": "Responders (sUA <6 mg/dL for at least 80% of the time during month 6)", "setting": "[2]; historical Phase 3 monotherapy trials C0405 and C0406, 36/85", "value": 42, "unit": "%"}, {"measurement": "response rate during Month 6", "setting": "[2]; pegloticase 8 mg every 2 weeks, phase 3 studies", "value": 43, "unit": "%"}, {"measurement": "proportion of responders during Month 6", "setting": "[2]; phase 3 studies", "value": 43.5, "unit": "%"}, {"measurement": "incidence of infusion-related reactions", "setting": "[2]; pooled Phase 3, 8 mg biweekly dosing", "value": 26, "unit": "%"}, {"measurement": "incidence of infusion-related reactions", "setting": "[2]; pooled Phase 3, 8 mg every-4-week dosing regimen", "value": 40, "unit": "%"}, {"measurement": "pegloticase-treated patients with IRs in whom loss of response (return to SUA >6 mg/dL) preceded the first IR", "setting": "[2]; pooled Phase 3, 20/21", "value": 95, "unit": "%"}, {"measurement": "infusion reactions reported", "setting": "[2]; pre-marketing controlled clinical trials, 8 mg every 2 weeks", "value": 26, "unit": "%"}, {"measurement": "anaphylaxis frequency", "setting": "[2]; pre-marketing controlled clinical trials", "value": 6.5, "unit": "%"}, {"measurement": "participants with high antibody titers who maintained a response (serum urate <6 mg/dL)", "setting": "[2]; second study", "value": "1 of 52 participants"}, {"measurement": "participants with high titers who developed IR", "setting": "[2]; second study", "value": 60, "unit": "%"}, {"measurement": "patients who developed IRs", "setting": "[2]; titers exceeding 1:2430, 31 of 52", "value": 60, "unit": "%"}, {"measurement": "patients with Cmin below quantitation limit", "setting": "[2]; without MTX, 63/82", "value": 77, "unit": "%"}, {"measurement": "pegloticase overall Cmin, median", "setting": "[2]; without MTX, historical monotherapy, BQL = below quantitation limit of 0.6 μg/mL", "value": "BQL"}, {"measurement": "pegloticase Cmax, median", "setting": "[2]; without MTX, historical monotherapy", "value": 1.51, "unit": "µg/mL"}, {"measurement": "plasma urate concentration (pUAc) after dosing, mean±SD", "setting": "[3]", "value": "1.0±0.5", "unit": "mg/dL"}]}
